Experimental data from article doi:10.1101/2024.12.05.626941 (bioRxiv, 2024).

Target: the molecule itself
Experiment: SEC

B1: Physcomitrella patens adenosine kinase 1 (PpADK1) (enzyme, UniProt O49923 1-343, looked up)
chain: MASEGVLLGMGNPLLDISCVVDDAFLEKYGLTLNNAILAEDKHLPMYKELAANPDVEYIAGGATQNTIRIAQWMLGESNATSYFGCVGKDEYGDRMFKLASEGGVNIRYDVDEDLPTGTCGVLVVKGERSLVANLSAANKYKIDHLKKPENWAFVEKAKYIYSAGFFLTVSPESMMTVAKHAAETGKYYMINLAAPFICQFFKDPLMELFPYVDFIFGNESEARAFAQVQGWETEDTKVIAVKLAALPKAGGTHKRVAVITQGTDPTIVAEDGKVTEFPVTPIPKEKLVDTNAAGDSFVGGFLSQLVLGKDIAQCVRAGNYAASVIIQRSGCTFPSKPSFESQ
- stoichiometry N: 2
